Measured values as given in patent US20170008934A1, “BACTERIALLY FORMED MICROCIN S, A NEW ANTIMICROBIAL PEPTIDE, EFFECTIVE AGAINST PATHOGENIC MICROORGANISMS, E.G. ENTEROHEMORRHAGIC ESCHERICHIA COLI (EHEC)” (SYMBIOGRUPPE GmbH & CO. KG, priority 2011, published 2017).

System: EHEC (86-24 O157:H7, O104:H4, O128:H2)
Assay: in vitro adherence assay: inhibition of EHEC adherence to human intestinal epithelial cells (LOVO) after pre-incubation with test strains
Assay type: cell-based
Details: ESBL-producing O104:H4 outbreak strain, O128:H2 and O157:H7 EHEC isolates; FIG. 5 (tested as producer strain E. coli G3/10)
Description: Enterohemorrhagic E. coli adhere to intestinal epithelial cells. In a second experiment, confluent monolayers of LOVO cells were pre-incubated with bacterial test strains at a multiplicity of infection (MOI) of 100:1 E. coli to host cells. The influence of EcN and E. coli G3/10 was tested. After two hours of incubation, cells were washed and infected with EHEC using an MOI of 100:1 EHEC to host cells. Three EHEC isolates were tested as indicator strains using the in vitro adherence assay. We used HUS-associated EHEC 86-24 serotype O157:H7 and two different isolates of the EHEC O104:H4 outbreak strain as well as an EHEC O128:H2 patient isolate. Since the EHEC O104:H4 isolates are ESBL producers, medical treatment is limited. Adherence efficiency in % are expressed as adherence of EHEC relative to adherence without any pre-incubation (negative control), which is set 100%. The data are the mean±SD of three separate experiments in duplicate wells.

B1: microcin S: new class IIa microcin, antimicrobial polypeptide of E. coli G3/10, SEQ ID NO: 7 (precursor with leader SEQ ID NO: 6) (protein, listed as Escherichia coli)
chain: NANSNYEGGGSRSRNTGARNSLGRNAPTHIYSDPSTVKCANAVFSGMVGGAIKGGPVGMTRGTIGGAVIGQCLSGGGNGNGGGNRAGSSNCSGSNVGGTCSR
With B1 the “inhibitory effect of EHEC” value was “shows an inhibitory effect of EHEC”.
